# Results from US20030027228A1 (MYRIAD GENETICS, published 2003).
# * marks the point of attachment. Biotin = O=C1N[C@H]2[C@H](CS[C@H]2CCCCC(=O)*)N1
# T1: MMAC1.388-403 biotin-ENEPFDEDQHTQITKV-COOH (SMILES …)
# T1 construct: also called the 16 C-terminal amino acids of MMAC1
# T1 peptide: Biotin-ENEPFDEDQHTQITKV-OH
# T2: SH3 binding peptide biotin-SGSGILAPPVPPRNTR-COOH (SMILES …)
# T2 peptide: Biotin-SGSGILAPPVPPRNTR-OH
# T3: AF6 PDZ binding peptide biotin-SGDDGDDPFLQYEFYV-COOH (SMILES …)
# T3 peptide: Biotin-SGDDGDDPFLQYEFYV-OH
# B1: GST fusion of MMSC1 PDZ domain 3 (amino acids 364-451) (other)
# chain: YNVELVRKDGQSLGIRIVGYVGTSHTGEASGIYVKSVIPGSAAYHNGHIQVNDKIVAVDGVNIQGFANHDVVEVLRNAGQVVHLTLVR
# notes: Expressed in E. coli, purified on glutathione-agarose, adsorbed to the ELISA plate; GST is placed N-terminal as in pGEX vectors; also called MMSc1 PDZ 3; PDZ domain number 3; not shown: glutathione S-transferase (GST) encoded by pGEX vectors (Pharmacia)
# B2: GST fusion of MMSC1 PDZ domain 7 (amino acids 1238-1320) (other)
# chain: HIIELEKDKNGLGLSLAGNKDRSRMSIFVVGINPEGPAAADGRMHIGDELLEINNQILYGRSHQNASAIIKTAPSKVKLVFIR
# notes: Expressed in E. coli, purified on glutathione-agarose, adsorbed to the ELISA plate; GST is placed N-terminal as in pGEX vectors; also called MMSc1 PDZ 7; PDZ domain number 7; not shown: glutathione S-transferase (GST) encoded by pGEX vectors (Pharmacia)
# B3: GST fusion of MMSC1 PDZ domain 8 (amino acids 1436-1518) (other)
# chain: MIIEISKGRSGLGLSIVGGKDTPLNAIVIHEVYEEGAAARDGRLWAGDQILEVNGVDLRNSSHEEAITALRQTPQKVRLVVYR
# notes: Expressed in E. coli, purified on glutathione-agarose, adsorbed to the ELISA plate; GST is placed N-terminal as in pGEX vectors; also called MMSc1 PDZ 8; PDZ domain number 8; not shown: glutathione S-transferase (GST) encoded by pGEX vectors (Pharmacia)
# B4: GST fusion of MMSC1 PDZ domain 9 (amino acids 1532-1613) (other)
# chain: FPVDLQKKAGRGLGLSIVGKRNGSGVFISDIVKGGAADLDGRLIQGDQILSVNGEDMRNASQETVATILKCAQGLVQLEIGR
# notes: Expressed in E. coli, purified on glutathione-agarose, adsorbed to the ELISA plate; GST is placed N-terminal as in pGEX vectors; also called MMSc1 PDZ 9; PDZ domain number 9; not shown: glutathione S-transferase (GST) encoded by pGEX vectors (Pharmacia)
# B5: GST fusion of MMSC1 PDZ domain 5 (amino acids 685-771) (other)
# chain: KIVELVKDCKGLGFSILDYQDPLDPTRSVIVIRSLVADGVAERSGGLLPGDRLVSVNEYCLDNTSLAEAVEILKAVPPGLVHLGICK
# notes: Expressed in E. coli, purified on glutathione-agarose, adsorbed to the ELISA plate; GST is placed N-terminal as in pGEX vectors; also called MMSc1 PDZ 5; PDZ domain number 5; not shown: glutathione S-transferase (GST) encoded by pGEX vectors (Pharmacia)
# B6: GST fusion of MMSC1 PDZ domain 6 (amino acids 1067-1158) (other)
# chain: RIVEIFREPNVSLGISIVGGQTVIKRLKNGEELKGIFIKQVLEDSPAGKTNALKTGDKILEVSGVDLQNASHSEAVEAIKNAGNPVVFIVQS
# notes: Expressed in E. coli, purified on glutathione-agarose, adsorbed to the ELISA plate; GST is placed N-terminal as in pGEX vectors; also called MMSc1 PDZ 6; PDZ domain number 6; not shown: glutathione S-transferase (GST) encoded by pGEX vectors (Pharmacia)
# Target: T1, MMAC1.388-403 …
# Assay: peptide binding ELISA: GST-PDZ on plate, biotin-peptide/streptavidin-alkaline phosphatase complex, colorimetric
# Excerpt: (§1) cDNAs encoding each of the MMSC1 PDZ domains (amino acid residues identified in Table 1), and any desired control proteins, were generated by PCR and subcloned as glutathione S-transferase (GST) fusions in pGEX vectors (Pharmacia). After sequencing to confirm expression construct integrity, the resulting clones were expressed in E. coli and the desired fusion proteins isolated with glutathione-agarose and recovered with glutathione elution. These fusion proteins or control proteins were then adsorbed to different wells of a 96-well ELISA plate and remaining sites blocked with BSA. Synthetic commercially synthesized peptides encoding the desired PDZ-binding domain (i.e., the 16 C-terminal amino acids of MMAC1, or the C-terminal peptide sequences of interacting proteins identified by the approach of Example 2, or the C-terminal peptide sequences identified by the approach of Example 3), or a control peptide, and biotinylated at the amino-terminus, were pre-bound to streptavidin-alkaline phosphatase in a 4:1 molar ratio. The biotinylated peptide streptavidin-alkaline phosphatase complexes were then blocked with free biotin. These pre-bound peptide streptavidin-alkaline phosphatase complexes were then incubated with the immobilized PDZ domains in wash buffer containing PBS, BSA and triton-X100. Unbound material was removed with repeated washes. Bound peptide/streptavidin-alkaline phosphatase complex was then quantitated by a colorimetric phosphatase assay read on a 96-well plate reader.
row,Binder,A405
1,B1,0.01 A405
2,B2,1.25 A405
3,B3,0.3 A405
4,B4,0.1 A405
5,B5,0 A405
6,B6,0.23 A405

# Target: T2, SH3 binding peptide …
# Assay: as above
# Excerpt: as §1
row,Binder,A405
1,B1,0.01 A405
2,B2,0.01 A405
3,B3,0 A405
4,B4,0.02 A405
5,B5,0 A405
6,B6,0 A405

# Target: T3, AF6 PDZ binding peptide …
# Assay: as above
# Excerpt: as §1
row,Binder,A405
1,B1,2.24 A405
2,B2,1.05 A405
3,B3,0.29 A405
4,B4,2.41 A405
5,B5,0.02 A405
6,B6,1.46 A405
